This is an account of results in patent US20230095569A1 (ANTENGENE BIOLOGICS, published 2023).

For experiment [1], the target named is T1, human Claudin18.2 (CLDN18.2) (human, UniProt P56856 1-261).
T1 construct: the cell line is named under assay; also called human Claudine18.2; hClaudin18.2
Nature of the experiment: FACS on GAXC031 cells.

In experiment [2] the target is T1, human Claudin18.2 (CLDN18.2). In words: cell-based or functional assay.
Experiment [3] has the same target. In words: cell-based or functional assay. The source holds these as a separate data set.
Experiment [4] has the same target. Nature of the experiment: cell-based or functional assay. This is another data set of the same source.
The target is the same in experiment [5]. Nature of the experiment: FACS on CHOK1-18.2 cells.
For experiment [6] the target is unchanged. In words: FACS on CHOK1-18.2 cells, antibody at 50 µg/ml.
The target is the same in experiment [7]. In words: FACS on GAXC031 cells, antibody at 50 µg/ml.
For experiment [8] the target is unchanged. Nature of the experiment: FACS on CHOK1-18.2 cells. This is another data set of the same source.
Procedure: (§1) The specificity and cross-reactivity of these subclones were confirmed with FACs analysis. […] Fluorescent dye-conjugated secondary antibody was used to detect the binding of the primary antibody with the cells. Median fluorescence intensity (MFI) was measured by FACs analysis.
Experiment [9] concerns the target T2, human Claudin18.1 (CLDN18.1) (human, UniProt P56856 1-261).
T2 construct: whole, on cells; also called human Claudine18.1
In words: FACS on CHOK1-18.1 cells.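 Further: test antibody binding to the cells detected by flow cytometry using a fluorescent dye-labelled secondary antibody, read out as median fluorescence intensity.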
Procedure: as §1

In experiment [10] the target is T2, human Claudin18.1 (CLDN18.1). In words: FACS (FIGS. 1A and 1B).

Substitutions are numbered along the chain they refer to.

B1: chAb20 (antibody, V domains shown)
VH: EVMLVESGGGLVKPGGSLKLSCVASGFTFSSYTMSWVRQTPEKRLEWVATIIGGYGNTYYSDSVKGRITISRDSAKNTLYLQMISLRSEDTALYYCTRLGQTQRNAMDYWGQGTSVTVSS
VL: DILMTQSPSSLSVSAGEKVTMNCKSSQSLLNSGNQKNYLAWYQQKPGQPPKLLIYGASTRESGVPDRFTGSGSGTDFTLTISSVQAEDLAVYYCQNDYYYPFTFGAGTKLEL
As usually defined, the EC50 is the concentration that produces a half-maximal response. The low end stands for a more potent agent, the high end for a less potent agent. Turning to B1, in [1], the EC50 amounted to 42.9 nM. In addition, in [2], the “CDC EC50” value was 8.82 nM and the “Max CDC induced tumor cell killing (% of control)” value was 73 % of control. In addition, in experiment [3], the “IC50 of indirect ADC cytotoxicity” value came to 0.47 nM and the Max inhibition % stood at 92.8%. Further, in experiment [4], the “ADCC EC50” value was 4.14 nM and the “Max tumor cell killing (% of control), ADCC” value is 62.9 % of control. In addition, the midpoint of the response in experiment [5], the EC50, lay at 3.88 nM. Also, the “MAX MFI” value in [6] turned out to be 65700. Moreover, the “MAX MFI” value in experiment [7] came to 6260.

B2: chAb15 (antibody, V domains shown)
VH: EVMLVESGGDLVKPGGSLKLSCAASGFTFSTYTMSWVRQTPEKRLEWVATIVGGGGYTYYLDSVKGRFTISRDNAKNTLYLQMISLRSEDTALYYCARMGLTQRNALDYWGQGTSITVSS
VL: DIVMTQSPSSLSVSEGEKVTLNCKSSQSLFNSGNQKNYLAWYQQKPGQPPKLLIYGASTRESGVPDRFTGSGFGTDFTLTISSVQAEDLAVYYCQNDHTYPLTFGAGAKLELK
Take B2: the response in experiment [1] was half-maximal at 31.9 nM (EC50). Moreover, in [2], the “CDC EC50” value stood at 8.15 nM and the “Max CDC induced tumor cell killing (% of control)” value is 77.4 % of control. In addition, in experiment [3], the “IC50 of indirect ADC cytotoxicity” value came out at 0.38 nM and the Max inhibition % came to 92.4%. Besides, in experiment [4], the “ADCC EC50” value stood at 2.65 nM and the “Max tumor cell killing (% of control), ADCC” value was 36.5 % of control. Besides, the EC50 in [5] was 4.64 nM. Moreover, the “MAX MFI” value in experiment [6] was 94000. Also, the “MAX MFI” value in [7] came to 6110.

B3: chAb17 (antibody, V domains shown)
VH: QVQLKESGPGLVAPSQSLSITCTVSGFSLTSYAISWVRQPPGKGLEWLGEIWTGGGTNYNSALKSRLSISKDNSKSQVFLKMNSLQTDDTARYYCGRLSYGNSLDYWGQGTTLTVSS
VL: DIVMTQSPSSLTVTAGEKVTMSCKSSQSLLNSGNQKNYLTWYQQKPGQPPKLLIYWASTRESGVPDRFTGSGSGTDFTLTVSSVQAEDLAVYYCQNNFIYPLTFGPGTKLELK
B3: the EC50 in [1] amounted to 94.2 nM. For the same molecule, in experiment [2], the “CDC EC50” value is 9.93 nM and the “Max CDC induced tumor cell killing (% of control)” value was 70.8 % of control. Also, in experiment [3], the “IC50 of indirect ADC cytotoxicity” value came to 0.88 nM and the Max inhibition % was 92.4%. In [4], the “ADCC EC50” value stood at 2.46 nM and the “Max tumor cell killing (% of control), ADCC” value is 60.6 % of control. The response in experiment [5] was half-maximal at 4.74 nM (EC50). Moreover, the “MAX MFI” value in experiment [6] stood at 83800. In experiment [7], the “MAX MFI” value amounted to 4230.

B4: chAb10 (antibody, V domains shown)
VH: B1 VH with V23A, I52S, G53V, G54I, Y55G, S61V, I68F, S74K, I84S, T97A
VL: B2 VL with E15A, L21M, N22S, F30L, F73S, H98Y, T99S, A108T
For B4, the EC50 in [1] was 29.2 nM. Moreover, in [2], the “CDC EC50” value worked out at 2.69 nM and the “Max CDC induced tumor cell killing (% of control)” value was 82.7 % of control. For the same molecule, in experiment [3], the “IC50 of indirect ADC cytotoxicity” value turned out to be 0.24 nM and the Max inhibition % was 92.8%. Besides, in experiment [4], the “ADCC EC50” value was 1.68 nM and the “Max tumor cell killing (% of control), ADCC” value is 55.2 % of control. This molecule also gave an EC50 in experiment [5] of 2.27 nM. Moreover, the “MAX MFI” value in [6] worked out at 80400. Further, in experiment [7], the “MAX MFI” value is 6940.

B5: Ab10 (antibody, V domains shown)
VH: B1 VH with V23A, I52S, G53V, G54I, Y55G, S61V, I68F, S74K, I84S, T97A
VL: B2 VL with E15A, L21M, N22S, F30L, F73S, H98Y, T99S, A108T
notes: mouse monoclonal (hybridoma)
Turning to B5, the “FACS MFI” value in experiment [8] is 8400; in experiment [9], 80.8. Moreover, in experiment [10], the binding result is “no binding”.

B6: chAb05 (antibody, V domains shown)
VH: DVKLVESGEDLVKPGGSLKLSCAASGFTFSNYAMSWVRQTPEKRLEWVAYVSSGGDYIYYADTVKGRFIISRDNARNTLYLQMNSLRSEDTAMYYCARVYFGNSLDYWGQGTTLTVSS
VL: DIVMTQSPSSLTVTAGEKVTLSCKSSQSLLNGGNQKNYLTWYQQRPGQPPKLLIYWASTRESGVPDRFTGSGSGTDFTLIISSVQAEDLAVYYCQNDYYYPWTFGGGTKLEIK
The molecule B6 came in with an EC50 in [1] of 73.8 nM. In addition, in experiment [2], the “CDC EC50” value is 17.8 nM and the “Max CDC induced tumor cell killing (% of control)” value is 78.9 % of control. Also, in [3], the “IC50 of indirect ADC cytotoxicity” value came out at 0.99 nM and the Max inhibition % is 92.3%. In experiment [4], the “ADCC EC50” value was 5.92 nM and the “Max tumor cell killing (% of control), ADCC” value was 57.9 % of control. The EC50 in experiment [5] is 5 nM. In addition, the “MAX MFI” value in experiment [6] is 83900. The “MAX MFI” value in experiment [7] worked out at 4600.
